Measurements taken from US9927440B2, “Protein engineering” (priority 2009, dated 2018).
Positions count from the first letter of the chain named. Names and notes keep the numbering of the source. Like-named read-outs stand apart in the source and are kept apart here.

Tests used:
[1] = biological target: T1, Staphylococcal nuclease (SN) (Staphylococcus aureus, UniProt P00644); type: binding; conditions: SN/L36C; 35.3 °C; from single ΔΔGU measurement; read-out: apparent KD (binary complex)
T1 construct: made in house; host or cells: cell-free TnT, E. coli BL21 Star (DE3) extract
Method: (§1) The rate of labeling of internal cysteine residues was measured by reacting 30-50 μL of ˜0.1 μM protein sample (i.e., ˜3-5 picomoles of protein) with excess IAM-biotin (1 mM unless otherwise stated) at constant temperature (25 mM MOPS, 100 mM KCl and pH 7.6). 5 μL aliquots were removed at fixed time intervals and quenched by addition of 2 μL 2M β-mercaptoethanol (Sigma; M6250). Following addition of 5 μL LDS-buffer (Invitrogen; NP0007) and heating for 2 min at 85° C., (un)labeled protein species were resolved by SDS-PAGE (Novex 4-12% Bis-Tris Gels; Invitrogen; NP0321). […] For the experiment shown in FIG. 8A, ecRBP variant L62C was modified with 1 mM IAM-biotin at 47.1° C., pH 7.6. […] Streptavidin was used to alter the electrophoretic mobility of the labeled protein (Streptavidin bands indicated by a, b, and c). […] Error bars represent the estimated uncertainty of the integrated band intensities (˜2%). For the experiment shown in FIG. 8B, SN variant L36C was labeled with IAM-biotin at 35.3° C., pH 7.6. […] At 29.3° C., 26.3° C. and 23.3° C., kint and klabel were manipulated by increasing the concentration of IAM-biotin from 1 mM to 3.16 mM.
(§2) The modulation of protein stability by binding of metals, ligands, activators, inhibitors, substrates, nucleic acid or other proteins can be used to measure binding affinities within a GUWO. For a protein with a single binding site, the free energy of ligand binding was described by
(§3) [formula] where P was the binding polynomial, [L] the total ligand concentration, and KD the apparent dissociation constant of the ligand. For proteins with multiple ligand-binding sites, P was expanded as described in Equations 21-36 below.
(§4) By thermodynamic linkage, any change in ΔGU caused predominantly by ligand binding (Scheme 1) is ΔGbind=ΔΔ^LGU=Δ^LGU−Δ^apoGU [20] where Δ^LGU and Δ^apoGU were the stability of the protein in the presence of absence of ligand respectively. Equation 20 was used to obtain apparent KD values from either the ligand dependence of ΔΔGU (by curve fitting), or from a single measurement of ΔΔGU.

[2] = biological target: T2, Staphylococcal nuclease (SN) (Staphylococcus aureus, UniProt P00644, L118C/Q162N); type: binding; conditions: 35.3 °C
T2 construct: made in house; host or cells: cell-free TnT, E. coli BL21 Star (DE3) extract
Method: as §1, §2, §3, §4

SN = SN (Staphylococcus aureus, UniProt P00644); conditions: cited from earlier work
[3] = Quantitative cysteine reactivity (QCR): protein stability, temperature dependence of ΔGU; type: physicochemical; conditions: for ΔHm: Gibbs-Helmholtz fit, ΔCp assigned a priori; for ΔG°U at 25° C.: ecRBP mutants, Gibbs-Helmholtz extrapolation; for apparent Tm below wild-type: versus literature wild-type Tm
Method: as §1
Following staining with GelCode™ Blue Stain reagent (Thermo Scientific; 24592), gel images were digitized and band intensities quantified by densitometry (ImageJ; Rasband (1997-2009), U.S. National Institutes of Health, Bethesda, Md.) and fit to a single exponential to derive klabel. When designing QCR experiments, consideration was given to the degradation of the iodoacetyl moiety of IAM-biotin, which was dependent on time, exposure to light, and temperature. […] At higher temperatures the degradation of IAM-biotin is taken into account, primarily by limiting the labeling reaction to less than ˜90 min.
[formula] applies only if the labeling conditions were fully in the EX2 limit, when kclose>>kint. As labeling reagent concentration increases, kint increases concomitantly and eventually kint will become equal to or greater than kclose. Under these conditions, the observed labeling rate was determined solely by kopen and klabel and was no longer a measure of stability. The reagent concentration and environmental conditions (i.e. pH and temperature) at which EX2 conditions no longer apply varies according to the (un)folding kinetics of the protein. A simple test of reaction mechanism was to change reagent concentration and remeasure the kinetics: EX2 conditions were satisfied if the change in the observed labeling rate was proportional to the change in reagent concentration (see FIG. 9).
The QCR experiment was designed to determine the Gibbs free energy of global protein unfolding by measuring the reactivity of wild-type or mutant cysteines buried in a hydrophobic core. […] These mutant proteins were produced in 200 μL batches by cell-free coupled transcription and translation in E. coli extract. […] This approach uses approximately 0.5 picomoles (˜10 nanograms) of protein per time point and can use a variety of thiol-reactive reagents that alter electrophoretic mobility or were highly fluorescent.
The QCR method exploits the conformational fluctuations of a protein to measure conformational free energy. Cysteines that were protected in the folded ensemble can be modified by thiol-reactive probe only by complete exposure to bulk solvent by transient unfolding reactions, as described by a two-step reaction scheme:
Unfolding free energies (ΔGU) can be determined under EX2 conditions (kclose>>kint) by measuring klabel, the rate constant for labeling a protected cysteine at a specified concentration of thiol probe [P]

[4] = biological target: T3, E. coli ribose-binding protein (ecRBP) (Escherichia coli, UniProt P02925, L86C/T28W); test: biochemical; conditions: ecRBP.L62C, 48.9 °C; for kex: 1.00E−03 M IAM
T3 construct: made in house; host or cells: cell-free TnT, E. coli BL21 Star (DE3) extract
Method: as §1, §2, §3, §4

[5] = literature; cited from earlier work
[6] = biological target: T4, E. coli ribose-binding protein (ecRBP) (Escherichia coli, UniProt P02925, A213C/T28W); test: biochemical; conditions: ecRBP.A188C, 54.6 °C; for kex: 1.00E−03 M IAM
T4 construct: made in house; host or cells: cell-free TnT, E. coli BL21 Star (DE3) extract
Method: as §1, §2, §3, §4

[7] = Ca2+ and pdTp synergistic, read-out: affinity for SN in the presence of the other ligand

T3 sequence (P02925 other isoform, or with tags, fused parts or gaps T28W/L86C): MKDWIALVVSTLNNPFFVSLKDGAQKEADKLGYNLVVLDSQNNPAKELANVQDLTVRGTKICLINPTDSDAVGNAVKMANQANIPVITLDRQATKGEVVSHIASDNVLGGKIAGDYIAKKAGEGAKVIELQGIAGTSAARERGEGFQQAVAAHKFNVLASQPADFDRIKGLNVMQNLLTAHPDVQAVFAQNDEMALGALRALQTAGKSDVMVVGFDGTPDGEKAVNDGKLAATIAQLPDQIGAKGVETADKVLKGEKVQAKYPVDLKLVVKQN
T4 sequence (P02925 other isoform, or with tags, fused parts or gaps T28W/A213C): as the sequence (P02925 other isoform, or with tags, fused parts or gaps T28W/L86C) above, with C62L, A189C counted along it

Molecule: [Ca+2] [Ca^2+]
- Kd [1]: 600 ± 200 µM
- increase in stability (ΔΔGU) of SN/L36C ([2]; 1 mM Ca2+): 0.6 ± 0.2 kcal/mol
- Kd (SN; [7]): ~2 µM
- Kd (SN; Serpersu et al. 1986, read-out: affinity for SN, ligand by itself): ~500 µM

Molecule: Cc1cn([C@H]2C[C@H](OP(=O)(O)O)[C@@H](COP(=O)(O)O)O2)c(=O)[nH]c1=O [pdTp]
- Kd [1]: 23 ± 4 µM
- increase in stability (ΔΔGU) of SN/L36C ([2]; 50 μM pdTp): 0.7 ± 0.2 kcal/mol
- Kd (SN; [7]): ~2 µM

B1: ecRBP.L62C: E. coli ribose-binding protein variant L62C (SEQ ID NO:12) (protein, listed as Escherichia coli)
chain: MKDTIALVVSTLNNPFFVSLKDGAQKEADKLGYNLVVLDSQNNPAKELANVQDLTVRGTKICLINPTDSDAVGNAVKMANQANIPVITLDRQATKGEVVSHIASDNVLGGKIAGDYIAKKAGEGAKVIELQGIAGTSAARERGEGFQQAVAAHKFNVLASQPADFDRIKGLNVMQNLLTAHPDVQAVFAQNDEMALGALRALQTAGKSDVMVVGFDGTPDGEKAVNDGKLAATIAQLPDQIGAKGVETADKVLKGEKVQAKYPVDLKLVVKQNGGSHHHHHH
- apparent Tm ([3]; Gibbs-Helmholtz fit of QCR ΔGU(T)): 54±1 °C
- ΔHm [3]: 81 ± 2 kcal/mol
- ΔG°U at 25° C. [3]: 3.2 ± 0.1 kcal/mol
- apparent Tm below wild-type [3]: ~8 °C
- ΔG ([4]; [Ligand] 0 μM): 1.0 kcal/mol
- ΔΔG ([4]; [Ligand] 0 μM): 0 kcal/mol
- kex ([4]; [Ligand] 0 μM): 0.0099 s⁻¹
- ΔG ([4]; [Ligand] 1.5 μM (ribose)): 1.5 kcal/mol
- ΔΔG ([4]; [Ligand] 1.5 μM (ribose)): 0.5 kcal/mol
- kex ([4]; [Ligand] 1.5 μM (ribose)): 0.0051 s⁻¹
- ΔG ([4]; [Ligand] 3 μM (ribose)): 1.8 kcal/mol
- ΔΔG ([4]; [Ligand] 3 μM (ribose)): 0.7 kcal/mol
- kex ([4]; [Ligand] 3 μM (ribose)): 0.0036 s⁻¹
- ΔG ([4]; [Ligand] 6 μM (ribose)): 2.2 kcal/mol
- ΔΔG ([4]; [Ligand] 6 μM (ribose)): 1.2 kcal/mol
- kex ([4]; [Ligand] 6 μM (ribose)): 0.00019 s⁻¹
- ΔG ([4]; [Ligand] 12 μM (ribose)): 2.6 kcal/mol
- ΔΔG ([4]; [Ligand] 12 μM (ribose)): 1.5 kcal/mol
- kex ([4]; [Ligand] 12 μM (ribose)): 0.00011 s⁻¹
- ΔG ([4]; [Ligand] 24 μM (ribose)): 2.7 kcal/mol
- ΔΔG ([4]; [Ligand] 24 μM (ribose)): 1.6 kcal/mol
- kex ([4]; [Ligand] 24 μM (ribose)): 0.00091 s⁻¹

B2: wild-type ecRBP: wild-type E. coli ribose-binding protein (protein, listed as Escherichia coli)
chain: B1 chain with C62L
- Tm of wild-type [5]: 62.6 °C

B3: ecRBP.A188C (protein, UniProt P02925 26-296, looked up, variant A188C)
Ribose import binding protein …: KDTIALVVSTLNNPFFVSLKDGAQKEADKLGYNLVVLDSQNNPAKELANVQDLTVRGTKILLINPTDSDAVGNAVKMANQANIPVITLDRQATKGEVVSHIASDNVLGGKIAGDYIAKKAGEGAKVIELQGIAGTSAARERGEGFQQAVAAHKFNVLASQPADFDRIKGLNVMQNLLTAHPDVQAVFCQNDEMALGALRALQTAGKSDVMVVGFDGTPDGEKAVNDGKLAATIAQLPDQIGAKGVETADKVLKGEKVQAKYPVDLKLVVKQ
- ΔHm [3]: 91 ± 4 kcal/mol
- ΔG°U at 25° C. [3]: 4.1 ± 0.1 kcal/mol
- apparent Tm below wild-type [3]: ~8 °C
- ΔG ([6]; [Ligand] 0 μM): 0.8 kcal/mol
- ΔΔG ([6]; [Ligand] 0 μM): 0 kcal/mol
- kex ([6]; [Ligand] 0 μM): 0.00217 s⁻¹
- ΔG ([6]; [Ligand] 1.5 μM (ribose)): 1.1 kcal/mol
- ΔΔG ([6]; [Ligand] 1.5 μM (ribose)): 0.3 kcal/mol
- kex ([6]; [Ligand] 1.5 μM (ribose)): 0.00141 s⁻¹
- ΔG ([6]; [Ligand] 3 μM (ribose)): 1.4 kcal/mol
- ΔΔG ([6]; [Ligand] 3 μM (ribose)): 0.6 kcal/mol
- kex ([6]; [Ligand] 3 μM (ribose)): 0.00097 s⁻¹
- ΔG ([6]; [Ligand] 6 μM (ribose)): 1.6 kcal/mol
- ΔΔG ([6]; [Ligand] 6 μM (ribose)): 0.8 kcal/mol
- kex ([6]; [Ligand] 6 μM (ribose)): 0.00073 s⁻¹
- ΔG ([6]; [Ligand] 12 μM (ribose)): 2.2 kcal/mol
- ΔΔG ([6]; [Ligand] 12 μM (ribose)): 1.4 kcal/mol
- kex ([6]; [Ligand] 12 μM (ribose)): 0.00032 s⁻¹
- ΔG ([6]; [Ligand] 24 μM (ribose)): 2.5 kcal/mol
- ΔΔG ([6]; [Ligand] 24 μM (ribose)): 1.7 kcal/mol
- kex ([6]; [Ligand] 24 μM (ribose)): 0.00019 s⁻¹
